Test results reported in US20090042809A1 (published 2009).

What was measured:
[1] = biological target: T1, angiotensin converting enzyme (ACE), obtained from Sigma Chemicals; assay: cell-based or functional assay
[2] = biological target: T1, angiotensin converting enzyme (ACE), …; assay: cell-based or functional assay; remark: listed apart in the source

IC50 value in µM, Modified Matsui assay (cleavage of Hip-His-Leu by ACE) [1] [µM]	IC50 value in µM, at-line ACE assay (cleavage of HHL by ACE) [1] [µM]	IC50 value in the Modified Matsui test [2] [µM]	Binder
10	50	–	ITP [tripeptide ITP (Ile-Thr-Pro), chemically synthesised]
0.4	3.8	0.5	MAP [tripeptide MAP (Met-Ala-Pro), chemically synthesised]
2	7.1	–	IPP [tripeptide IPP (Ile-Pro-Pro), chemically synthesised]
